Data on three molecules can be found in US20220289795, “EFFICIENT METHOD FOR PREPARING PPR PROTEIN AND USE OF THE SAME” (EditForce, Inc., published 2022).

Assay in all cases: ELONA; RPB-ELISA
The target in one data set is T1, v3.1_PPR21 (Artificial Sequence).
T1 chain: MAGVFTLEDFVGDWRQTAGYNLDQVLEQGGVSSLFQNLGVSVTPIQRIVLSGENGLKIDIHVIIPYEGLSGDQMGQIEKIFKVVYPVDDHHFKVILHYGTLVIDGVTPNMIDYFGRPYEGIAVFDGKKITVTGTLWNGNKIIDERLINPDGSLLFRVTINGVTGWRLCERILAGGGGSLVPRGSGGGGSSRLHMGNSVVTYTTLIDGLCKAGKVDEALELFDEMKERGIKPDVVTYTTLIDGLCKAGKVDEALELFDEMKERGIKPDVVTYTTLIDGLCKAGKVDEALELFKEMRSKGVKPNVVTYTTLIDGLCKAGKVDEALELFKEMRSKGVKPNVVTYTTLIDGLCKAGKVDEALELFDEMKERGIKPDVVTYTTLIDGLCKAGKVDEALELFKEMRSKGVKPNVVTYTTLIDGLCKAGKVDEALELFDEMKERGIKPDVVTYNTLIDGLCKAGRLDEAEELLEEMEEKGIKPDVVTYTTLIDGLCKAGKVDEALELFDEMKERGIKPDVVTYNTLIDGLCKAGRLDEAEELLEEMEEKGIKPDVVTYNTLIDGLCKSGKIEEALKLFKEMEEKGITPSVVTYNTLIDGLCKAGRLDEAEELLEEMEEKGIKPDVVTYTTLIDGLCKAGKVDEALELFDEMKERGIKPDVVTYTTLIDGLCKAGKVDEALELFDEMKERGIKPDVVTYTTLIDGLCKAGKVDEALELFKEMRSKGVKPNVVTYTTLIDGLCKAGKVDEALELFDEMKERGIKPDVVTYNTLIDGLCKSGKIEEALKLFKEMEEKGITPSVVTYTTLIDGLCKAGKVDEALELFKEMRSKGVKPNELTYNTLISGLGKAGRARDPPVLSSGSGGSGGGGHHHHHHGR
Particulars: tags: luciferase fusion; label: 5'-biotin.

The next data set has as its target T2, NL_v2_PPR21 (Artificial Sequence).
T2 chain: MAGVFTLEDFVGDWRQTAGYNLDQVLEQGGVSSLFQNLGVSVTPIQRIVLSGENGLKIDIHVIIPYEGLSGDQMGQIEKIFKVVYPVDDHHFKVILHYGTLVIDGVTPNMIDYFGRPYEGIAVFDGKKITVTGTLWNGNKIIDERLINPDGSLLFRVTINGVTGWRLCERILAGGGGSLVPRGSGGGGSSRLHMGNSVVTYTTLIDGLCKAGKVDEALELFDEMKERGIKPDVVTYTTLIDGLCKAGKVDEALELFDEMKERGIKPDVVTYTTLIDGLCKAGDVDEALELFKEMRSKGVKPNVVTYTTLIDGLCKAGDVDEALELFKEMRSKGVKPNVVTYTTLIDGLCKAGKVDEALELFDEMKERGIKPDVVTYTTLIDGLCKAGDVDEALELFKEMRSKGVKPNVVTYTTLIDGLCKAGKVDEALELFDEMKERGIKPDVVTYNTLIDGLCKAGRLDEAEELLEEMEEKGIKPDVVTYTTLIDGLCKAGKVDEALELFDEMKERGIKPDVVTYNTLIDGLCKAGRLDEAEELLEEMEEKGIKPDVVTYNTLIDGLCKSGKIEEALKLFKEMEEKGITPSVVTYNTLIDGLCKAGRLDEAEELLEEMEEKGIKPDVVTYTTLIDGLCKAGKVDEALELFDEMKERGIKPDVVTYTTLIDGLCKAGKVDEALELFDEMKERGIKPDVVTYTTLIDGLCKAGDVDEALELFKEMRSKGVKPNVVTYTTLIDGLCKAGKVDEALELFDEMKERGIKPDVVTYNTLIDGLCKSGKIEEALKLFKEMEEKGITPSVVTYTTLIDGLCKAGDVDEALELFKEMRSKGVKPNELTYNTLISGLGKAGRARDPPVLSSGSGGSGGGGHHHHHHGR
Particulars: tags: N-term luciferase, C-term 6xHis; label: 5'-biotin.

For a further data set, the target named is T3, NL_v2_PPR20 (Artificial Sequence).
T3 chain: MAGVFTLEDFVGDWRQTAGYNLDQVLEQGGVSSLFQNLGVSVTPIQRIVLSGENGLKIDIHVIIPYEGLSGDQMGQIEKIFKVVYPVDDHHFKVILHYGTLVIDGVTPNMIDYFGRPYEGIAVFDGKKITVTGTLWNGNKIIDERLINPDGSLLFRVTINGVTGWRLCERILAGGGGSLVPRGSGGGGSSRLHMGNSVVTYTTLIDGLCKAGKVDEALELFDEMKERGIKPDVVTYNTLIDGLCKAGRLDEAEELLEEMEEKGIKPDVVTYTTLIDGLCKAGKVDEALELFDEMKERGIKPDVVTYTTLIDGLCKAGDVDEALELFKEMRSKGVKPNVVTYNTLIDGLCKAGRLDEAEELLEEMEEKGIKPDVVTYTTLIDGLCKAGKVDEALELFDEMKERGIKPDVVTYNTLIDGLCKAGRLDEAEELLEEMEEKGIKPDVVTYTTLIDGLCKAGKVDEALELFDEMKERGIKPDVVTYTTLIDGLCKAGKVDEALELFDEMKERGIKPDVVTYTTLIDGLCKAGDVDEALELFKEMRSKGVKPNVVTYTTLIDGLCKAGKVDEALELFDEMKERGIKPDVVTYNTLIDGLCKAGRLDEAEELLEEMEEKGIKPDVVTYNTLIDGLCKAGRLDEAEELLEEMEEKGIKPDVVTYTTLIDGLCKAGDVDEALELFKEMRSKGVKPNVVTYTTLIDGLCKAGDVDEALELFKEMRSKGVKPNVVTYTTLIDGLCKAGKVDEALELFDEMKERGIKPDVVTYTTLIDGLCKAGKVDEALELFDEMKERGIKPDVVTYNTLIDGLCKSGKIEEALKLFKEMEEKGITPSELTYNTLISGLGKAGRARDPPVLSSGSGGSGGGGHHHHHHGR
The following applies: tags: N-term luciferase, C-term 6xHis; label: 5'-biotin.

The target of a further data set is T4, v3.1_PPR20 (Artificial Sequence).
T4 chain: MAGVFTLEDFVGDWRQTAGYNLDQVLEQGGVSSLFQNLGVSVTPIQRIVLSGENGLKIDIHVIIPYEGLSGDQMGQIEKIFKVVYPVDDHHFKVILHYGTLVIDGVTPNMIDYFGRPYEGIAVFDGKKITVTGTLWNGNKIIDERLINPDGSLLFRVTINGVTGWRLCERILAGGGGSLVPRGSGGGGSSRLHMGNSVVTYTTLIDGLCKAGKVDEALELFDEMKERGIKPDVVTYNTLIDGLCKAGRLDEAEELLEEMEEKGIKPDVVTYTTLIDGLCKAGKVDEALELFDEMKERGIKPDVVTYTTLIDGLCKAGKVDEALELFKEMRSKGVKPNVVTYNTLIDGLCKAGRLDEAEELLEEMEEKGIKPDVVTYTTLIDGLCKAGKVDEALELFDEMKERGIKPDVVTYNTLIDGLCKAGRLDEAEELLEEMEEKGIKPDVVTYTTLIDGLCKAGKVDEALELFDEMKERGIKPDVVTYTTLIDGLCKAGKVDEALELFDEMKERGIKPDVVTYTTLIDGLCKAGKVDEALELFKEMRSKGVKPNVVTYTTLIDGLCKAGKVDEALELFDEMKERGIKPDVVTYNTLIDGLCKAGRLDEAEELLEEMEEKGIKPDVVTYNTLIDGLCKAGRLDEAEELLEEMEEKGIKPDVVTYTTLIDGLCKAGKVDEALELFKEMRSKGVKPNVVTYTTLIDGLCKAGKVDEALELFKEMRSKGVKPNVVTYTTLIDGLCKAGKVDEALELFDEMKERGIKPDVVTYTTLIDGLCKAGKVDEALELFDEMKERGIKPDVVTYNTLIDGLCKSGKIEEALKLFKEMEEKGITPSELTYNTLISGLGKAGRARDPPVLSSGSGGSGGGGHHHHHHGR
Particulars: tags: luciferase fusion; label: 5'-biotin.

In the next data set the target is T5, NL_v2_PPR19 (Artificial Sequence).
T5 chain: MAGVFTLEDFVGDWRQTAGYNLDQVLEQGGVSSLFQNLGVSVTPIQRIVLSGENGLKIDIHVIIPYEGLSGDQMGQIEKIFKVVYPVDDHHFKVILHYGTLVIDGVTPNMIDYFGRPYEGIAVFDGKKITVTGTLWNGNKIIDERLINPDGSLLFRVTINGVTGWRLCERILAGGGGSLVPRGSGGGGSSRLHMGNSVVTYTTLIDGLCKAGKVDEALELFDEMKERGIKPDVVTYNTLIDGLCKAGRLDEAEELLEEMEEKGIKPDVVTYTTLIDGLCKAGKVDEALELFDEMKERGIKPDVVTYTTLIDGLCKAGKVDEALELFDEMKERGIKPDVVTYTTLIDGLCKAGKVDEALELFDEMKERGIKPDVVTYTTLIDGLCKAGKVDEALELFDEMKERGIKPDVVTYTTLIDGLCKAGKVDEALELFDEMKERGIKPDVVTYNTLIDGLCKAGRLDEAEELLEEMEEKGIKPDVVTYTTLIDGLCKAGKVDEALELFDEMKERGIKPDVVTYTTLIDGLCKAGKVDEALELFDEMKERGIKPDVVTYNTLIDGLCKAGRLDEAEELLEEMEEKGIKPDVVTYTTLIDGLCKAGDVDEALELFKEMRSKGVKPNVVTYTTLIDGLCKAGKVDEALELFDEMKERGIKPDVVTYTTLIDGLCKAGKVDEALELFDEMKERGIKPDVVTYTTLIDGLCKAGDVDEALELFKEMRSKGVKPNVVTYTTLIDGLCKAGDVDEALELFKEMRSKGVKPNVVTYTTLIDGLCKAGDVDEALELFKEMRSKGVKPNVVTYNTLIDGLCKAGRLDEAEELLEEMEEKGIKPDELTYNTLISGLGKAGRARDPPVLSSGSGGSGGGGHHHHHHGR
The following applies: tags: N-term luciferase, C-term 6xHis; label: 5'-biotin.

Another data set addresses T6, v3.1_PPR19 (Artificial Sequence).
T6 chain: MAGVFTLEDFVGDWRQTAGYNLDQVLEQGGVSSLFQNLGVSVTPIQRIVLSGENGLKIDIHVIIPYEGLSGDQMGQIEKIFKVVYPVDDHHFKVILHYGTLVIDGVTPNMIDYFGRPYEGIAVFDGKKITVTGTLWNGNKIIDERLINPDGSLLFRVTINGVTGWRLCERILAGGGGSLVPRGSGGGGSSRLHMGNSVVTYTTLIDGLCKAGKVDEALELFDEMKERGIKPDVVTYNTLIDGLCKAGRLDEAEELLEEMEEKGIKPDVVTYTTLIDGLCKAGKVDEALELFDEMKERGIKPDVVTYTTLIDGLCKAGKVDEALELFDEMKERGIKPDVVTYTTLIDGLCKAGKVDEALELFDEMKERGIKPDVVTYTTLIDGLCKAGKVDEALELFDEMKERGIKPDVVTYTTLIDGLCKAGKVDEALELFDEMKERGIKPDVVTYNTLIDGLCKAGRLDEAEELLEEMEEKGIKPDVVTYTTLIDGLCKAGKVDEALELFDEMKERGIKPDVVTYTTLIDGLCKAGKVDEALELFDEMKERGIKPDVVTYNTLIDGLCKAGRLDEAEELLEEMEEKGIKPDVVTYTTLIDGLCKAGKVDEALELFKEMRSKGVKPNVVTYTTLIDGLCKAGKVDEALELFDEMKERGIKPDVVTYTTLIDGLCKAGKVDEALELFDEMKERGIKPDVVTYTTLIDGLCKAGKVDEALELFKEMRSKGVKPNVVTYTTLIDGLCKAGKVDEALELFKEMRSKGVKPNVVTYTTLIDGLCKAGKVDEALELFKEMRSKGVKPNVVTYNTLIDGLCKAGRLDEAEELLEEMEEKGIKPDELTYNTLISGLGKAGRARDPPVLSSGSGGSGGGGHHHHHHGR
Particulars: tags: luciferase fusion; label: 5'-biotin.

Regarding GACAUGCGGAAGAGUGUCUGGAGCAGACUG (ssRNA) [RNA_21], the binding signal is 4.9e+06 luminescence with v3.1_PPR21 and 5e+07 luminescence with NL_v2_PPR21.
On to GACAUGCGUGAUGUGGAGUUAAGGCGACUG (ssRNA) [RNA_20], for which the values for the binding signal with NL_v2_PPR20 and in the data set with v3.1_PPR20 were 1.2e+07 luminescence and 3.6e+06 luminescence, respectively.
With GACAUGCGUGGGGGUGGUAGGAAAUGACUG (ssRNA) [RNA_19], the binding signal with NL_v2_PPR19 and in the data set with v3.1_PPR19 was 1.3e+07 luminescence each time.
